Test [1] concerns the target T1, tag polypeptide of Example 1, structural formula (8) (not fully specified).
T1 construct: Chemically synthesized from two fragments (Chain A with the linker cysteine, Chain B) joined by native chemical ligation; also called A2
T1 peptide: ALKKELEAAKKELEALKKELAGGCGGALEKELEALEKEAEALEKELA
In words: fluorescence titration, 0.5 µM probe in HEPES buffer. Here is the method: (§1) In the fluorescence titration, the rate of change of the fluorescence intensity at 505 nm was plotted against the concentration of the tag peptide and the dissociation constant was calculated from a theoretical formula assuming 1 to 1 binding of the tag peptide to the probe peptide.
(§2) In FIG. 6, the horizontal axis represents the titer of the tag against the probe whereas the vertical axis represents the relative increase in fluorescence intensity when the fluorescence intensity detected for the probe alone at fluorescence wavelength of 505 nm is estimated as 1. […] In Example 1, the fluorescence intensity at 505 nm in the presence of 1 equivalent of tag peptide was 18 times as high as that measured in the absence of the tag peptide.

Test [2] addresses T2, tag polypeptide of Example 2, structural formula (10).
T2 construct: also called L2
T2 peptide: T1 peptide with A9L, A39L
The description is as above. How it is done: as §1, §2

For test [3], the target named is T3, tag polypeptide of Example 3, structural formula (11) (not fully specified).
T3 construct: also called G2
T3 peptide: T1 peptide with A9G, A39G
The description is as above. How it is done: as §1, §2

Test [4] concerns the target T1, tag polypeptide of Example 1, …. In words: fluorescence titration, tag added to 0.5 µM probe in HEPES buffer, 505 nm, 1:1 model. Here is the method: as §1, §2
Test [5] concerns the target T2, tag polypeptide of Example 2, …. The description is as above. How it is done: as §1, §2
Test [6] has as its target T3, tag polypeptide of Example 3, …. The test is described as above. How it is done:
as §1, §2

Test [7] concerns the target T4, fused protein of DsRed and PKC having at its N terminal end a tag polypeptide of sequence (A) (Homo sapiens (Human), UniProt Q05655 1-676).
T4 construct: Expressed in the cytoplasm of CHO.K1 cells, which were permeabilized with saponin before the probe was added; also called tag-fused PKC
In words: fluorescence microscopy of permeabilized CHO.K1 cells, 1 µM probe, NBD against DsRed localization with and without PDBu. How it is done:
Subsequently, a permeabilization buffer (20 mM Hepes, pH 7.4, 140 mM KCl, 50 μg/mL saponin, 5 mM oxalic acid) was added to the thus-prepared CHO.K1 cells. After left to stand on ice for 10 min, the cells were washed with PBS, followed by incubating on ice for 20 min in PBS. Thereafter, the cells were incubated in PBS at room temperature for 2 min and then 37° C. for 2 min. Further, the cells were incubated at 37° C. for 30 min in a conditioned medium (Ham's F12) to which a probe indicated by sequence (B) (probe concentration: 1 μM (Final conc.)) had been added.
Separately, before treated with the permeabilization buffer, the above-prepared CHO.K1 cells were treated for 10 min with 10 mM DMSO containing PDBu (phorbol 12,13 dibutyrate; final concentration: 10 μM). The cells were observed by the fluorescence microscope similar to the above.
The following was used as a control; a group which was not treated with PDBu, and CHO.K1 cells to which only DIC was introduced (note that DIC is a vector used for introducing into cells the above-mentioned fused protein of DsRed and PKC having at its N terminal end a tag polypeptide indicated by sequence (A). The cells were observed as mentioned above at predetermined wavelength (515 nm to 560 nm). The results are shown in FIG. 11.

Numbering of substitutions follows the chain as printed. Square brackets hold non-standard residues; d marks the D form. * marks the point of attachment. NBD = O=[N+]([O-])c1ccc(*)c2nonc12; Dap = NC[C@H](N)C(=O)O; ClAc = O=C(CCl)*

T4 sequence (Q05655 other isoform, or with tags, fused parts or gaps limits assumed): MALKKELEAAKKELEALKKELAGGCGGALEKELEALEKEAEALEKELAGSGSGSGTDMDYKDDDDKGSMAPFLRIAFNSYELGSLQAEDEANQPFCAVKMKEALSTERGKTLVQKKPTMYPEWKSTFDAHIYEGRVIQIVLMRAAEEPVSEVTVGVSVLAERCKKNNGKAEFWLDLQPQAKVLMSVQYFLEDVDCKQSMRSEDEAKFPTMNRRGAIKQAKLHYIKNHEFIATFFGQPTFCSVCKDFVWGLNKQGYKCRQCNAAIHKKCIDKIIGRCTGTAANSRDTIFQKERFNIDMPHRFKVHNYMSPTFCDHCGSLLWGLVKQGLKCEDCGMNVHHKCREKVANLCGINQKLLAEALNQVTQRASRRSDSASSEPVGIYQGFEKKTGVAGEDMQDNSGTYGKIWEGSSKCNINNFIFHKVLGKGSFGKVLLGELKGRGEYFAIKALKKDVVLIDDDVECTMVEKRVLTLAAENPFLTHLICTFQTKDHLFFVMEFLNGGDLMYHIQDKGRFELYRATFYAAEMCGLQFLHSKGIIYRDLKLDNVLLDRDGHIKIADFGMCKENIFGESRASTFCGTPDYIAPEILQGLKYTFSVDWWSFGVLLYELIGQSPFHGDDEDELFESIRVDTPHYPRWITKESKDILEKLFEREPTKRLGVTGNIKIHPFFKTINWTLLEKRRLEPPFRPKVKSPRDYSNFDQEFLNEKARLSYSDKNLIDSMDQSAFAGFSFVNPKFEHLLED

B1: probe polypeptide of Example 1, structural formula (9) (peptide)
peptide: Ac-ALKKKLEALKKK[Dap](NBD)EALKKKLA-NH2
SMILES: CC(=O)N[C@@H](C)C(=O)N[C@@H](CC(C)C)C(=O)N[C@@H](CCCCN)C(=O)N[C@@H](CCCCN)C(=O)N[C@@H](CCCCN)C(=O)N[C@@H](CC(C)C)C(=O)N[C@@H](CCC(=O)O)C(=O)N[C@@H](C)C(=O)N[C@@H](CC(C)C)C(=O)N[C@@H](CCCCN)C(=O)N[C@@H](CCCCN)C(=O)N[C@@H](CCCCN)C(=O)N[C@@H](CNc1ccc([N+](=O)[O-])c2nonc12)C(=O)N[C@@H](CCC(=O)O)C(=O)N[C@@H](C)C(=O)N[C@@H](CC(C)C)C(=O)N[C@@H](CCCCN)C(=O)N[C@@H](CCCCN)C(=O)N[C@@H](CCCCN)C(=O)N[C@@H](CC(C)C)C(=O)N[C@@H](C)C(N)=O
notes: the text says (9); also called L-NBD; probe peptide
For orientation: Kd means the equilibrium constant for the complex coming apart. A higher Kd goes with lower affinity. For B1, the “equivalents of tag peptide at which the change in fluorescence saturates” value in test [1], in test [2] and in test [3] was 1 equivalent in each case. Moreover, the “fold increase of fluorescence intensity at 505 nm with 1 equivalent of tag peptide against probe alone” value in test [1] was 18 times. Moreover, the dissociation constant Kd in test [4] was 17.5 nM; in test [5], 24.3 nM; in test [6], 755 nM.
For ClAc-GALKKKLEALKKK[Dap](NBD)EALKKKLA-NH2 (also called ClAc-G probe) [probe peptide for crosslink reaction, structural formula (12)], the binding result in test [7] is listed as “binds”.

The values are drawn from patent US20100075434A1 (NATIONAL UNIVERSITY CORPORATION TOKYO MEDICAL AND DENTAL …, published 2010).
